In US20240299510A1:

Columns and labels:
[1] = target: HIT01-Combo3; assay: BLI (Octet); antibody IgG 50 ug/ml on AHC sensor, immunogen from 500 nM in 2x dilutions
[2] = target: HIT01-K21Q-R218E; assay: as above
[3] = target: human PCSK9 (human) (UniProt Q8NBP7); assay: BLI (Octet) blocking; wt PCSK9 on Ni-NTA sensor, 50 ug/ml AMG145 for 300 s, then NHP serum (competitor) at 200-fold dilution
[4] = target: HIT01-K21Q-R218E; assay: BLI (Octet) blocking; HIT01-K21Q-R218E on Ni-NTA sensor, 50 ug/ml AMG145 for 300 s, then NHP serum (competitor) at 200-fold dilution

| Substance | Kd [1] [nM] | Kd [2] [nM] | reduction of serum response when the probe is blocked [3] [%] | reduction of serum response when the probe is blocked [4] [%] |
| --- | --- | --- | --- | --- |
| AMG145 (antibody) | 0.005 | < 0.001 | 50 | 50 |
| Alirocumab (antibody) | 112 | 58 |  |  |
